For the assay, the target named is T1, Human β-catenin, GST tagged (human, UniProt P35222 1-781).
T1 chain: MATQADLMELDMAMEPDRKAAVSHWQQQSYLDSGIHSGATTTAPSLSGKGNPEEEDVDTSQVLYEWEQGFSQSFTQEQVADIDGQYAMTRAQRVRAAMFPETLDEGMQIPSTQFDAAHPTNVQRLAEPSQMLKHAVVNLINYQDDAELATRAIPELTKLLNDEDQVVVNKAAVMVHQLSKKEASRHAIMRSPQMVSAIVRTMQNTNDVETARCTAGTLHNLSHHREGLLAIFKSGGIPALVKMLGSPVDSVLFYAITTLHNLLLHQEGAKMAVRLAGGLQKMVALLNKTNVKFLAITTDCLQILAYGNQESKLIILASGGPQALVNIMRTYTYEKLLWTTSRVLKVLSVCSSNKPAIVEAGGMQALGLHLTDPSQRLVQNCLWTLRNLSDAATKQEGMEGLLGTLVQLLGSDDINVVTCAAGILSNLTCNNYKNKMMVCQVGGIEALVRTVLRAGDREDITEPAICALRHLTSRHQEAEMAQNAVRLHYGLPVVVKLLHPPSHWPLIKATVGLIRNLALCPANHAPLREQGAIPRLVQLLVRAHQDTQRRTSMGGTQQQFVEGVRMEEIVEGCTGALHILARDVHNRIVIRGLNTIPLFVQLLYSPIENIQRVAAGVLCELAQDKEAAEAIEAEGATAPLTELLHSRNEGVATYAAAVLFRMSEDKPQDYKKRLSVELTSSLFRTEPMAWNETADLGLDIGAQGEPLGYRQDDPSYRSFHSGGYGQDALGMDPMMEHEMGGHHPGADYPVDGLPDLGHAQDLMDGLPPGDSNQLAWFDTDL

B1: αE-catenin, monomeric fraction (mouse, full length, His(6x) tagged) (natural protein)
chain: MTAVHAGNINFKWDPKSLEIRTLAVERLLEPLVTQVTTLVNTNSKGPSNKKRGRSKKAHVLAASVEQATENFLEKGDKIAKESQFLKEELVVAVEDVRKQGDLMKSAAGEFADDPCSSVKRGNMVRAARALLSAVTRLLILADMADVYKLLVQLKVVEDGILKLRNAGNEQDLGIQYKALKPEVDKLNIMAAKRQQELKDVGNRDQMAAARGILQKNVPILYTASQACLQHPDVAAYKANRDLIYKQLQQAVTGISNAAQATASDDAAQHQGGSGGELAYALNNFDKQIIVDPLSFSEERFRPSLEERLESIISGAALMADSSCTRDDRRERIVAECNAVRQALQDLLSEYMGNAGRKERSDALNSAIDKMTKKTRDLRRQLRKAVMDHVSDSFLETNVPLLVLIEAAKNGNEKEVKEYAQVFREHANKLIEVANLACSISNNEEGVKLVRMSASQLEALCPQVINAALALAAKPQSKLAQENMDLFKEQWEKQVRVLTDAVDDITSIDDFLAVSENHILEDVNKCVIALQEKDVDGLDRTAGAIRGRAARVIHVVTSEMDNYEPGVYTEKVLEATKLLSNTVMPRFTEQVEAAVEALSSDPAQPMDENEFIDASRLVYDGIRDIRKAVLMIRTPEELDDSDFETEDFDVRSRTSVQTEDDQLIAGQSARAIMAQLPQEQKAKIAEQVASFQEEKSKLDAEVSKWDDSGNDIIVLAKQMCMIMMEMTDFTRGKGPLKNTSDVISAAKKIAEAGSRMDKLGRTIADHCPDSACKQDLLAYLQRIALYCHQLNICSKVKAEVQNLGGELVVSGVDSAMSLIQAAKNLMNAVVQTVKASYVASTKYQKSQGMASLNLPAVSWKMKAPEKKPLVKREKQDETQTKIKRASQKKHVNPVQALSEFKAMDSI
Consider B1, for which the Kd was 35 nM.

These data come from article PMC8894357 (2022).
